{"source": "patent US20210087270A1", "about": "(INNATE PHARMA, published 2021)", "key": {"[1]": {"molecular_target": "T1, human KIR3DL2 (CD158k), wild type, at the cell surface (human, UniProt P43630 22-455)", "T1 sequence (P43630 22-455 E158D)": "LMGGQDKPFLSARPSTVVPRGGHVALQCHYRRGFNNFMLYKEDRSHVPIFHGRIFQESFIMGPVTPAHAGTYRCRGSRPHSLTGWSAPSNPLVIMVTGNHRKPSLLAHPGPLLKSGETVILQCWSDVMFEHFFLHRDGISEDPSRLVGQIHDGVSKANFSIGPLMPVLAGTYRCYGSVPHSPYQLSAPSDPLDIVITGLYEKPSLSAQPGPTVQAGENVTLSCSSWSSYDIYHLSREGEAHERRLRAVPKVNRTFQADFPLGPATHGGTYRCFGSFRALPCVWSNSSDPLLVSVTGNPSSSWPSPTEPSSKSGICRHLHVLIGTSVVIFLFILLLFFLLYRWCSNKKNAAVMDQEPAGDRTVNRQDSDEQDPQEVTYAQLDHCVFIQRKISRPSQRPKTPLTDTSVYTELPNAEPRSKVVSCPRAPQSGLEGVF", "assay": "cell-based or functional assay"}, "[2]": {"molecular_target": "T1, human KIR3DL2 (CD158k), wild type, at …", "assay": "cell-based or functional assay", "remark": "listed apart in the source"}, "[3]": {"molecular_target": "T1, human KIR3DL2 (CD158k), wild type, at …", "assay": "flow cytometry on live HUT78 cells, 2 h at 37°C in RPMI10%, detection with anti-human-Fc PE, median of fluorescence", "description": "(§1) This study aimed to evaluate the impact of staining conditions on 2B12 labelling of KIR3DL2-expressing cells, gated on total cells, at 4° C. or 37° C., and with incubation times of 2 hours, 4 hours or 24 hours. Briefly, 100,000 HUT78 cells per well were incubated with a dose range of 2B12 antibody starting from 0.0005 μg/ml to 30 μg/ml (serial dilution 1/3 in complete medium). The protocol used was as follows: incubation 2H; 4H and overnight at 4° C. and 37°; staining in RPMI 10% with or without PFA fixation; 2 washes in SB (150 μl/w); addition of anti-human-Fc PE for 30 min at 4° C.; 2 washes in SB (100 μl/w); and detection using FACS CANTO II."}, "[4]": {"molecular_target": "T1, human KIR3DL2 (CD158k), wild type, at …", "assay": "flow cytometry on live HUT78 cells, 24 h at 4°C in RPMI10%, detection with anti-human-Fc PE, median of fluorescence", "description": "as §1"}, "[5]": {"molecular_target": "T1, human KIR3DL2 (CD158k), wild type, at …", "assay": "flow cytometry on live HUT78 cells, 4 h at 37°C in RPMI10%, detection with anti-human-Fc PE, median of fluorescence", "description": "as §1"}, "[6]": {"molecular_target": "T1, human KIR3DL2 (CD158k), wild type, at …", "assay": "flow cytometry on live HUT78 cells, 24 h at 37°C in RPMI10%, detection with anti-human-Fc PE, median of fluorescence", "description": "as §1"}, "[7]": {"molecular_target": "T1, human KIR3DL2 (CD158k), wild type, at …", "assay": "flow cytometry on HUT78 cells after 20 h at 37°C; bound antibody detected with goat anti-human IgG Fc-PE (MdFI GaH-PE); the box prints no unit, the concentration axis is in µg/ml", "description": "(§2) This study aimed to evaluate the impact of a 20 hour incubation with antibody 2B12 on cell surface KIR3DL2 level by observing the amount of bound 2B12 (human IgG1), free (non-antibody bound) cell surface KIR3DL2 polypeptide, and total cell surface KIR3DL2 polypeptide. Briefly, HUT78 (100,000 cells/well) were incubated for 20h at 37° C. with a dose range of 2B12 antibody starting from (decreasing) 8.88 μg/ml, 1/3 serial dilution, 11 concentrations. Dose ranges were made in duplicate in order to perform the following 2 staining conditions: [0317] Total KIR3DL2+bound KIR3DL2 (GaH IgG Fc-PE+mAb2-APC (a non-competing anti-KIR3LD2 mAb) (10 μg/ml) [0318] Free KIR3DL2: 2B12-PE (10 μg/ml).\n(§3) Staining was performed at 4° C. in staining buffer for 1h and analyzed with a FACS Canto 11 HTS. The dark line/squares represents antibody 2B12 while the light line/circles represents isotype control. It can be seen that free KIR3DL2 receptors can be detected when incubating cells with 10 μg/ml of 2B12-PE and detecting free receptors with non-competing anti-KIR3DL2 antibody. It can be seen that 2B12-bound KIR3DL2 receptors can be detected by incubating cells with goat anti-human IgG Fc-PE secondary Ab. Both read-outs were correlated, with similar EC₅₀. […]"}, "[8]": {"molecular_target": "T1, human KIR3DL2 (CD158k), wild type, at …", "assay": "panel Bound KIR3DL2 - GaH-PE: flow cytometry on HUT78 cells after 24 h at 37°C with 2B12; bound antibody detected with goat anti-human IgG Fc-PE, the concentration axis is in µg/ml", "description": "(§4) This study aimed to evaluate the dynamics of KIR3DL2 receptor expression by observing the amount of total, free and 2B12-bound KIR3DL2 after different periods of incubation with antibody 2B12. Briefly, HUT78 cells (50,000 cells/well) were incubated for 1h, 24h or 48h at 37° C. in complete medium with 2B12 (human IgG1), dose range starting from 10 μg/ml (decreasing), 1/3 serial dilution, 11 concentrations, or with isotype control (IC), dose range starting (decreasing) from 10 μg/ml, 1/3 serial dilution, 11 concentrations. Dose ranges were made in triplicate in order to perform 3 staining conditions: [0323] Bound KIR3DL2 (30 min at 4° C.): GaH IgG Fc-PE, [0324] Free KIR3DL2+total KIR3DL2 (1h at 4° C.): 2B12-PE (10 μg/ml)+mAb2-APC (non-competing anti-KIR3DL2) (10 μg/ml), [0325] Total KIR3DL2 (1h+30 min at 4° C.): 2B12 (10 μg/ml)+GaH IgG Fc-PE."}, "[9]": {"molecular_target": "T1, human KIR3DL2 (CD158k), wild type, at …", "assay": "panel Bound KIR3DL2 - GaH-PE: flow cytometry on HUT78 cells after 48 h at 37°C with 2B12; bound antibody detected with goat anti-human IgG Fc-PE, the concentration axis is in µg/ml", "description": "as §4"}, "[10]": {"molecular_target": "T1, human KIR3DL2 (CD158k), wild type, at …", "assay": "panel Free KIR3DL2 - 2B12-PE: flow cytometry on HUT78 cells after 1 h at 37°C with unlabelled 2B12; loss of free KIR3DL2 detected with 2B12-PE at 10 µg/ml, the concentration axis is in µg/ml", "description": "as §4"}, "[11]": {"molecular_target": "T1, human KIR3DL2 (CD158k), wild type, at …", "assay": "panel Free KIR3DL2 - 2B12-PE: flow cytometry on HUT78 cells after 24 h at 37°C with unlabelled 2B12; loss of free KIR3DL2 detected with 2B12-PE at 10 µg/ml, the concentration axis is in µg/ml", "description": "as §4"}, "[12]": {"molecular_target": "T1, human KIR3DL2 (CD158k), wild type, at …", "assay": "panel Free KIR3DL2 - 2B12-PE: flow cytometry on HUT78 cells after 48 h at 37°C with unlabelled 2B12; loss of free KIR3DL2 detected with 2B12-PE at 10 µg/ml, the concentration axis is in µg/ml", "description": "as §4"}, "[13]": {"molecular_target": "T1, human KIR3DL2 (CD158k), wild type, at …", "assay": "flow cytometry on HUT78 cells after 20 h at 37°C with unlabelled antibody; loss of free KIR3DL2 detected with PE-labelled 2B12 (IPH4102-PE on the sheet) at 10 µg/ml; the box prints no unit, the concentration axis is in µg/ml", "description": "as §2, §3"}, "[14]": {"molecular_target": "KIR3DL2 mutant having I60N and G62S substitutions (human, UniProt P43630 22-455)", "sequence (P43630 other isoform, or with tags, fused parts or gaps I60N G62S I60N G62S)": "as the sequence (P43630 22-455 E158D) above, with I60N, G62S counted along it", "assay": "binding to a series of KIR3DL2 mutants"}, "[15]": {"molecular_target": "KIR3DL2 mutant having P14S, S15A and H23S substitutions (human, UniProt P43630 22-455)", "sequence (P43630 other isoform, or with tags, fused parts or gaps P14S S15A H23S P14S S15A H23S)": "as the sequence (P43630 22-455 E158D) above, with P14S, S15A, H23S counted along it", "assay": "binding to a series of KIR3DL2 mutants"}, "KIR3DL1 (CD158e1)": {"molecular_target": "T2, KIR3DL1 (CD158e1) (UniProt P43629 22-444, limits assumed)", "T2 construct": "also called closely related KIR3DL1", "T2 sequence (P43629 22-444 limits assumed)": "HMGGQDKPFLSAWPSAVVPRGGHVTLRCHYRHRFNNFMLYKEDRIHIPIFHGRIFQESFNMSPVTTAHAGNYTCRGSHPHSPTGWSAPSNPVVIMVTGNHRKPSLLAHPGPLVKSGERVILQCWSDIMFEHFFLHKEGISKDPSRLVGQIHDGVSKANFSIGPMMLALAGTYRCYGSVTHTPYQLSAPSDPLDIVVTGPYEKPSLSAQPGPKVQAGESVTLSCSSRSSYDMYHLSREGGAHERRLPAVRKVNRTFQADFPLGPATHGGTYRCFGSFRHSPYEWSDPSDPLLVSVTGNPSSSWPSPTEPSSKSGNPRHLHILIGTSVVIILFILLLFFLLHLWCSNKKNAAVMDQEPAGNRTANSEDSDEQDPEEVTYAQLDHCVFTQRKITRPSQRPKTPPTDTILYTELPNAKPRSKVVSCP", "assay": "hybridoma screening (flow cytometry, incl. HEK-293T/KIR3DL1 Domain 0-eGFP)", "description": "Antibodies which bind KIR3DL2 but not closely related KIR3DL1 were generated by immunizing mice with recombinant KIR3DL2-Fc fusion protein, described in US patent publication number US-2015-0232556-A1. Supernatant (SN) of the growing hybridomas were tested by flow cytometry on Sezary Syndrome cell lines (HUT78, COU-L) and HEK-293T/KIR3DL2 Domain 0-eGFP. Potentially interesting hybridomas selected from the initial screening were cloned by limiting dilution techniques in 96-wells plates. The secondary screen involved selection of hybridomas of interest by testing supernatants of the subclones by flow cytometry on HUT78, COU-L, HEK-293T/KIR3DL1 Domain 0-eGFP and HEK-293T/KIR3DL2 Domain 0-eGFP. Positive subclones were injected into mice to produce ascitis and antibodies of interest were purified before being tested in a Biacore assay using rec KIR3DL2 chips, followed by various assays formats based on binding to human KIR3DL2-expressing cells."}}}
{"binder": "antibody 2B12 (human IgG1) (antibody, V domains shown, Used as human IgG1 in the HUT78 staining studies (Parts 1-3); also called 2B12-PE) VH: QIQLVQSGPELKKPGETVRISCKASGYTFTTAGMQWVQKTPGKGLKWIGWINSHSGVPKYAEDFKGRFAFSLETSASTAYLQISTLKNEDTATYFCARGGDEGVMDYWGQGTSVTVS VL: DIVMTQSHKFMSTSLGDRVSFTCKASQDVSTAVAWYQQKPGQSPKLLIYWTSTRHTGVPDRFTGSGSGTDYTLTISSVQAEDLALYYCQQHYSTPWTFGGGTKLEIK", "values": [{"measurement": "EC50 of the increase of total cell-surface KIR3DL2 on HUT78 cells after 20 h at 37°C, detected with mAb2-APC (axis: MdFI 13E4-APC)", "setting": "[1]", "result": 0.0789, "unit": "µg/mL"}, {"measurement": "EC50 of the increase of total cell-surface KIR3DL2 on HUT78 cells after 24 h at 37°C, panel Total KIR3DL2 - 2B12+GaH-PE", "setting": "[2]", "result": 0.103, "unit": "µg/mL"}, {"measurement": "EC50 of the increase of total cell-surface KIR3DL2 on HUT78 cells after 24 h at 37°C, panel Total KIR3DL2 - mAb2-APC", "setting": "[2]", "result": 0.0599, "unit": "µg/mL"}, {"measurement": "EC50 of the increase of total cell-surface KIR3DL2 on HUT78 cells after 48 h at 37°C, panel Total KIR3DL2 - 2B12+GaH-PE", "setting": "[2]", "result": 0.0454, "unit": "µg/mL"}, {"measurement": "EC50 of the increase of total cell-surface KIR3DL2 on HUT78 cells after 48 h at 37°C, panel Total KIR3DL2 - mAb2-APC", "setting": "[2]", "result": 0.042, "unit": "µg/mL"}, {"measurement": "EC50 (read off the curve)", "setting": "[3]", "result": "~0.1", "unit": "µg/mL"}, {"measurement": "EC50 (read off the curve)", "setting": "[4]", "result": "~0.04", "unit": "µg/mL"}, {"measurement": "EC50 (read off the curve)", "setting": "[5]", "result": "~0.09", "unit": "µg/mL"}, {"measurement": "EC50 (read off the curve)", "setting": "[6]", "result": "~0.07", "unit": "µg/mL"}, {"measurement": "EC50", "setting": "[7]", "result": 0.059, "unit": "µg/mL"}, {"measurement": "EC50", "setting": "[8]", "result": 0.0566, "unit": "µg/mL"}, {"measurement": "EC50", "setting": "[9]", "result": 0.0163, "unit": "µg/mL"}, {"measurement": "EC50", "setting": "[10]", "result": 0.104, "unit": "µg/mL"}, {"measurement": "EC50", "setting": "[11]", "result": 0.0438, "unit": "µg/mL"}, {"measurement": "EC50", "setting": "[12]", "result": 0.0178, "unit": "µg/mL"}, {"measurement": "EC50", "setting": "[13]", "result": 0.0588, "unit": "µg/mL"}]}
{"binder": "antibody 2B12 (parental, as generated in Example 1) (antibody, V domains shown, From mouse hybridoma; It was detected with goat anti-mouse antibody in the internalization assay) VH: QIQLVQSGPELKKPGETVRISCKASGYTFTTAGMQWVQKTPGKGLKWIGWINSHSGVPKYAEDFKGRFAFSLETSASTAYLQISTLKNEDTATYFCARGGDEGVMDYWGQGTSVTVS VL: DIVMTQSHKFMSTSLGDRVSFTCKASQDVSTAVAWYQQKPGQSPKLLIYWTSTRHTGVPDRFTGSGSGTDYTLTISSVQAEDLALYYCQQHYSTPWTFGGGTKLEIK", "values": [{"measurement": "binding result", "setting": "[14]", "result": "no binding"}, {"measurement": "binding result", "setting": "[15]", "result": "binds"}, {"measurement": "binding result", "setting": "KIR3DL1 (CD158e1)", "result": "no binding"}]}
